1 molecule from patent publication US20260275378A1 (4D MOLECULAR THERAPEUTICS, published 2026) can be followed below.

The target in this experiment is T1, complement C3b (UniProt P01024 23-667; P01024 749-1663).
T1 construct: purified C3b (Complement Technology Inc. cat #A114) in the cleavage assay; also called purified C3b; C3b fragment
Briefly: C3b binding ELISA, C3b-coated plate, HEK293T supernatant. As to the method: C3b binding ELISA. The C3b binding ELISA is an in-house ELISA adapted from Nichols et. al. ([…] The assay tests if CpG-free miniCFH retains direct C3b binding ability by utilizing monoclonal anti-CFH blocking antibodies to prevent miniCFH binding to a C3b coated plate. The assay was carried out with both full-length recombinant CFH as proof of concept, and supernatants from 293T cells transfected with CpG-free miniCFH. As a control, we included conditions of mock incubation of CFH and transfected cell supernatant with no antibodies.

T1 sequence (P01024 23-667 limits assumed, chain 1 of 2): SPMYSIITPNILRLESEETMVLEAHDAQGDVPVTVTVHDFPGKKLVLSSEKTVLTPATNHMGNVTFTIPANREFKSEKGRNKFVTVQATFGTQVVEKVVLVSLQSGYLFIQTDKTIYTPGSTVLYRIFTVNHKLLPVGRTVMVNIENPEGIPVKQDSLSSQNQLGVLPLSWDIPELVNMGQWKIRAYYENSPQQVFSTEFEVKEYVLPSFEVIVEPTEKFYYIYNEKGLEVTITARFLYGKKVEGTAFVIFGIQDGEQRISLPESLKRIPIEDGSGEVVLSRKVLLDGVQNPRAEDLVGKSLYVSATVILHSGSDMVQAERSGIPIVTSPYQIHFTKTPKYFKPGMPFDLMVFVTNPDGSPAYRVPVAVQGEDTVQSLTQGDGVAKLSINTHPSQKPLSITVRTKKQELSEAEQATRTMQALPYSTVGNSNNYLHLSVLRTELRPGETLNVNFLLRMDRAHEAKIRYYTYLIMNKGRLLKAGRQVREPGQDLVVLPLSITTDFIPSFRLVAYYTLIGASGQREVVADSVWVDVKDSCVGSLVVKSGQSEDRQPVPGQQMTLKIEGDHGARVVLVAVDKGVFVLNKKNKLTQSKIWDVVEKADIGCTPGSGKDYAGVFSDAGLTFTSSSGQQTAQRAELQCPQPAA
T1 sequence (P01024 749-1663 limits assumed, chain 2 of 2): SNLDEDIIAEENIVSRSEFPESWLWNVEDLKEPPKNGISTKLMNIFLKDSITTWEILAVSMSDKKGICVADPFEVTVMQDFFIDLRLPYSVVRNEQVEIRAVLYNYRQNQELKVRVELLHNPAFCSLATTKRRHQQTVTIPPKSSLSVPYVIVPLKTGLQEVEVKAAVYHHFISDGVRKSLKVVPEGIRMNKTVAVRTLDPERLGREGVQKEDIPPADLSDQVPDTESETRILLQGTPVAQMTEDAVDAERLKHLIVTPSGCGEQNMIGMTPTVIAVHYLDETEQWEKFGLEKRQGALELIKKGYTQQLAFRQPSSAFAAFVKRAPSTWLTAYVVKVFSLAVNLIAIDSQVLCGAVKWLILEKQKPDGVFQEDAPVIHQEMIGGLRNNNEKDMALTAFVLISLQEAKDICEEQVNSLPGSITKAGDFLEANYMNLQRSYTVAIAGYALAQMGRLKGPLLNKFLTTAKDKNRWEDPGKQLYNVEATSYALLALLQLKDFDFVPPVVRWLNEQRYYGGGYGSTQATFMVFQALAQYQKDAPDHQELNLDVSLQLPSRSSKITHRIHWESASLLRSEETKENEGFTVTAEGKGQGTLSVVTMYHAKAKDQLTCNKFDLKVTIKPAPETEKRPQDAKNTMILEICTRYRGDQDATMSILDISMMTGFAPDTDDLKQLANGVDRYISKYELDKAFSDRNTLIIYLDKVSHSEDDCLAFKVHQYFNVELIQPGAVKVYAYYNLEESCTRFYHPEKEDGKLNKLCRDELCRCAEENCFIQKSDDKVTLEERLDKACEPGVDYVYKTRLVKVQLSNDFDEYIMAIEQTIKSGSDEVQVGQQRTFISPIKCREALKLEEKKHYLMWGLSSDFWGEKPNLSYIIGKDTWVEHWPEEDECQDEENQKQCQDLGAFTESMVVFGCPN

B1: miniCFH (shortened form of human complement factor H containing SCRs 1-4, 6-8 and 17-20) (other)
chain: EDCNELPPRRNTEILTGSWSDQTYPEGTQAIYKCRPGYRSLGNIIMVCRKGEWVALNPLRKCQKRPCGHPGDTPFGTFTLTGGNVFEYGVKAVYTCNEGYQLLGEINYRECDTDGWTNDIPICEVVKCLPVTAPENGKIVSSAMEPDREYHFGQAVRFVCNSGYKIEGDEEMHCSDDGFWSKEKPKCVEISCKSPDVINGSPISQKIIYKENERFQYKCNMGYEYSERGDAVCTESGWRPLPSCEEKSTLKPCDYPDIKHGGLYHENMRRPYFPVAVGKYYSYYCDEHFETPSGSYWDHIHCTQDGWSPAVPCLRKCYFPYLENGYNQNYGRKFVQGKSIDVACHPGYALPKAQTTVTCMENGWSPTPRCIRVKTCSKSSIDIENGFISESQYTYALKEKAKYQCKLGYVTADGETSGSITCGKDGWSAQPTCIKSIKTDCLSLPSFENAIPMGEKKDVYKAGEQVTYTCATYYKMDGASNVTCINSRWTGRPTCRDTSCVNPPTVQNAYIVSRQMSKYPSGERVRYQCRSPYEMFGDEEVMCLNGNWTEPPQCKDSTGKCGPPPPIDNGDITSFPLSVYAPASSVEYQCQNLYQLEGNKRITCRNGQWSEPPKCLHPCVISREIMENYNIALRWTAKQKLYSRTGESVEFVCKRGYRLSSRSHTLRTTCWDGKLEYPTCAKR
notes: Tested as unpurified serum-free supernatant of HEK293T cells transfected with the rAAV plasmid cassette; also called CpG-free miniCFH; short CFH
With B1, the binding result is “binds”.
